{"source": "patent US5621078", "target": "epidermal growth factor receptor (Homo sapiens (Human)) (UniProt P00533)"}
{"substance": "TGF-alpha - PE40 AB (ligand)", "values": [{"measurement": "A431 CELL KILLING EC50 pM", "result": 47, "unit": "pM"}]}
